{"source": "a protein production outcome set (Wang et al. 2014)", "experiment": "label from the status in PepcDB records"}
{"sequence": "MIRYLALLALLAAPWVQAADALHDDLPLKYLEQAPAEPRNQPLVIFLHGYGSNEADLFGLRQRLPASYTYVSVRAPQTLEEGSYQWFHRKGQGPYDGVTSELASGAELIGQFVRAALAKYQTQPDKVVLVGFSQGAVMAYEVGLRHPQSVRGIAALSGKILPVLAAQVKNNPSLQRLGIFIGHGTLDQRLPYSDAVDAQRLLQGLSLQPQFHAYPGLGHSISEAEIDDLKGWLQGLNP", "values": [{"measurement": "protein production", "result": "failed"}]}
{"sequence": "MASLAAVVRALLRRESQRATGYALREWTMLTARHLPYLQGQLTLGRIAAVGHLQRSTLGRSEWHTSSAPLFGEGRGRWHWGLSTSDVVDGSDHEHHSTETGGRELPSFKTGELGSDVDGDRAALEAWLAQIRDETSGWPELSLDALRDELDEELEGDDDDNDDDDDETYENEELLKALQEAVNRHRTPVVALVSGRVVHLRRTAAPKRSPRAGRVPRNEPQTTSRDTTKADANDNECT", "values": [{"measurement": "protein production", "result": "not failed"}]}
{"sequence": "MPLITTETGKKMHVLEDGRKLITVIPGDGIGPECVEATLKVLEAAKAPLAYEVREAGASVFRRGIASGVPQETIESIRKTRVVLKGPLETPVGYGEKSANVTLRKLFETYANVRPVREFPNVPTPYAGRGIDLVVVRENVEDLYAGIEHMQTPSVAQTLKLISWKGSEKIVRFAFELARAEGRKKVHCATKSNIMKLAEGTLKRAFEQVAQEYPDIEAVHIIVDNAAHQLVKRPEQFEVIVTTNMNGDILSDLTSGLIGGLGFAPSANIGNEVAIFEAVHGSAPKYAGKNVINPTAVLLSAVMMLRYLEEFATADLIENALLYTLEEGRVLTGDVVGYDRGAKTTEYTEAIIQNLGKTPRKTQVRGYKPFRLPQVDGAIAPIVPRSRRVVGVDVFVETNLLPEALGKALEDLAAGTPFRLKMISNRGTQVYPPTGGLTDLVDHYRCRFLYTGEGEAKDPEILDLVSRVASRFRWMHLEKLQEFDGEPGFTKAQGED", "values": [{"measurement": "protein production", "result": "not failed"}]}
{"sequence": "MIPGEILAVLVVVIPGVVNITYRLGIKKATIVGASADLVVAGLMYFLRPQTGFFYIQDSTMLFIIMVLSVYLLSAIYSTRYLKGIEVMGIREPTYYLLLNLFTASMLFSLEVNNYGLMWVGIEATTISSALLLITEKSETSLEATWRYIIIVSAGVTFAFISIILIYYTLGTLSVSTAIGSHVHSRIMVLAVSLALIGFGTKVGVFPVHTWLPDAHSEAPSPVSAMFSGVLLPTALYVLYRVYEIEPVRGLYVWFAVVSIVAASIFMGYQARYKRMFAYSTMENMNLALLGIAVGGSLGFTGALLLLLSHSFGKAGAFYSSGNILRFTGKKEIAEINGMHTSMPYTSTSLLMSSLAVTGAPPFGTFFGEFLILSGVLSLHMYVQFIIVIVFLAAAFISMNYNVTGMIFNGNCPNIEKDRLMPALSIFSSVIPLFIGIFFLVVYNEIL", "values": [{"measurement": "protein production", "result": "failed"}]}
{"sequence": "KNTGSKHNFLNHGLPLNLAIKPYLALKGSVDFPAENGVQNTESTQEKREIGDEENSAKFPIGRRDFDMLRCMLGRVYRPCWQV", "values": [{"measurement": "protein production", "result": "failed"}]}
{"sequence": "MVLPPVFYLARMWLMSQDSRVFFRIFFGIGLVLILISVVIFYNQFTYSKDAIHTEGVIVDTVWHSSHSHRTGKNGSWYPVVAFRPTPDYTLIFNSSIGSDFYEDSEGDKVNVYYSPGHPEKAEINNPWVNFFKWGFIGIMGVIFISVGLLISMPSSKKTRRKRKSRP", "values": [{"measurement": "protein production", "result": "failed"}]}
{"sequence": "MSALRTIGALTAREMLKFVRDRSRVLGALAQPLALWLLLGLGFQNTFQPPQGSVGGSYGAFLLPGILALVLLFTAIFSTISIVEERTSGFLQAVLVAPTPRTALVFGTTLGGTLLATVQALLFLGALPLIDLSPGVAGVGMIVAVCLLTGLAFTALGFAIAWRMETTRGFHAVMNLFLLPLWFLSGAMFPVDGAAPVLQVVMWGNPVSYAVSGLRHGFHGFAGTPAALAGPGVCLAVTGAFAVLMTGLAVWQVRRPFFQT", "values": [{"measurement": "protein production", "result": "failed"}]}
{"sequence": "MKKYFLKCGYFLVCFCLPLIVFANPKTDNERFFIRLSQAPLAQTLEQLAFQQDVNLVIGDILENKISLKLNNIDMPRLLQIIAKSKHLTLNKDDGIYYLNGSQSGKGQVAGNLTTNEPHLVSHTVKLHFAKASELMKSLTTGSGSLLSPAGSITFDDRSNLLVIQDEPRSVQNIKKLIAEMDKPIEQIAIEARIVTITDESLKELGVRWGIFNPTENARRVAGSLTGNSFENIADNLNVNFATTTTPAGSIALQVAKINGRLLDLELSALERENNVEIIASPRLLTTNKKSASIKQGTEIPYIVSNTRNDTQSVEFREAVLGLEVTPHISKDNNILLDLLVSQNSPGSRVAYGQNEVVSIDKQEINTQVFAKDGETIVLGGVFHDTITKSEDKVPLLGDIPVIKRLFSKESERHQKRELVIFVTPHILKAGETLEALKQKSEGKKLEHHHHHH", "values": [{"measurement": "protein production", "result": "failed"}]}
{"sequence": "MAGNSLVLPIVLWGRKAPTHCISSILLTDDGGTIVTGCHDGQICLWDVSVELEVNPRALLFGHTASITCLSKACASGDKRYTVSASANGEMCLWDVNDGRCIEFTKLACTHTGIQFYQFSVGNQQEGRLLCHGHYPEILVVDATSLEVLYSLVSKISPDWISSMSIIRSQRTQEDTVVALSVTGILKVWIVTSEMSGMQDTEPIFEEESKPIYCQNCQSISFCAFTQRSLLVVCSKYWRVFDAGDYSLLCSGPSENGQTWTGGDFVSADKVIIWTENGQSYIYKLPASCLPASDSFRSDVGKAVENLIPPVQHSLLDQKDKELVICPPVTRFFYGCKEYLHKLLIQGDSSGRLNIWNIADIAEKQEADEGLKMTTCISLQEAFDKLKPCPAGIIDQLSVIPNSNEPLKVTASVYIPAHGRLVCGREDGSIIIVPATQTAIVQLLQGEHMLRRGWPPHRTLRGHRNKVTCLLYPHQVSARYDQRYLISGGVDFSVIIWDIFSGEMKHIFCVHGGEITQLLVPPENCSVSRFI", "values": [{"measurement": "protein production", "result": "failed"}]}
{"sequence": "MSSWRPAVRTDTGWPLIRRTARCHMLRNPKNAGWCRSSAATASWRSCTVPRASAWPTSRTAVPRPMVGYQCGQVFRACCVKSQETGDLDVGGLQETDKIIEVEEEQEDPYLNDRCRGGGPCKQQCRDTGDEVVCSCFVGYQLLSDGVSCEDVNECITGSHSCRLGESCINTVGSFRCQRDSSCGTGYELTEDNSCKDIDECESGIHNCLPDFICQNTLGSFRCRPKLQCKSGFIQDALGNCIDINECLSISAPCPIGHTCINTEGSYTCQKNVPNCGRGYHLNEEGTRCVDVDECAPPAEPCGKGHRCVNSPGSFRCECKTGYYFDGISRMCVDVNECQRYPGRLCGHKCENTLGSYLCSCSVGFRLSVDGRSCEDINECSSSPCSQECANVYGSYQCYCRRGYQLSDVDGVTCEDIDECALPTGGHICSYRCINIPGSFQCSCPSSGYRLAPNGRNCQDIDECVTGIHNCSINETCFNIQGGFRCLAFECPENYRRSAATLQQEKTDTVRCIKSCRPNDVTCVFDPVHTISHTVISLPTFREFTRPEEIIFLRAITPPHPASQANIIFDITEGNLRDSFDIIKRYMDGMTVGVVRQVRPIVGPFHAVLKLEMNYVVGGVVSHRNVVNVHIFVSEYWF", "values": [{"measurement": "protein production", "result": "failed"}]}
{"sequence": "MLLEVIPLTLPLLLTLLPIVVILVMLLVFRKAADVSGIIGWLAISVVAWLGFQTAPEVILRSTAAGFIRSFSVSLIVATSLLQMALMEKTGALRRITIFIRTIASDNRAVQIMMINIGFGTLMVAVGATPVSILPPILLAMGYSTYVAIALPAIGYDSLCTYALLGAPIVVFVDIANSFLGKGNEIALHQAGMVFYMFLPVVSTMIGFCMLWIVGKWQAIRDGWLPCLLTGAVIGVVARFTNQYDNLVVLTGVLCGIAVIAAMAAYLVVTGGKVIDRSLLSAEEREFAAAMPLWRAFMPWTLLVILILVLNVPQDLFSWLYRTMKLPIAGLTADGKPLDTRALWQAYTWILVSTILAVPFLKPTGEQLRETVRTWVRRAPRPVFAAAVFFAIGEIMNMAGYDMAAGRFVVPSMVTVLADSSALAFQGMYGEVVAFIGLFGGFITGSEASTIAMFAKYTMTTAKNLDMPLSGLIIVTAGLAFGGGLASVISPAKLQNAAAAIDRIGEEGKVIRIAFVFALLLTLVTSLFVVVLLTVNGMGRVS", "values": [{"measurement": "protein production", "result": "failed"}]}
{"sequence": "MLQLTRVSRLMNIHCGALMNLKQQYQTSLITDALLHSLQTHSVCTTPSETIDSALNSDGMDRQWMSFFYLPELNSTTVNKIKSILSSFTEVGYIEIDQQTHHLAIYHDGPITPIEKNLEKQGIDVVFQQTQANYIPEPIDWKQIKKRHQILSWLFSINLIMLMVTFFTGLIASSTALIALALIIMSDVMIYAMTLYGIHEKQIGLYKFTRVGLYLQISLSLLLILAVIFQSVLQHQPLAQLIILVAALAFFTMLINMYLLIQTQQERPDLLNFRQWFSFYDVMFSFAVIVAGICCLLFDSNWPDITITTLMVFFLLDRSRRVFKKKTSFVVQ", "values": [{"measurement": "protein production", "result": "failed"}]}
{"sequence": "MDVKQTLEKAIALRQNKRYQESNAILVTLCKEHAHDPQILYQCGWSFDVLGLEAQAVPYYEKAIASGLQGKDLAECYLGLGSTFRTLGEYRKAEAVLANGVKQFPNHQALRVFYAMVLYNLGRYEQGVELLLKIIAETSDDETIQSYKQAILFYADKLDETWKALEHHHHHH", "values": [{"measurement": "protein production", "result": "not failed"}]}
{"sequence": "MDIKKIAQDDKSLGIDESNKDLFQDGILNIALFGVDSREHDNVGRSDSIIIATIDTKHDKIKLTSLMRDSYVEVDGHGKTKLTHAYAYGGPTLALKTINENFGLDIKDYVTVNFDNLAEIIDDLGGVPINIKPYEVKEVNNYAKNVAEIAGREYTPVSEGEQVLNGAQAVGYSRIRYVGDGDYERTERQRNVLDAIIKKLSALKPSEYPETIKKLLPYVETNLTPSKILSIATSVASTGIPPVENMRFPLDGYCKGEMIDGVWYLTFDEAKTKEQIQDYIYKDVNPKLEHHHHHH", "values": [{"measurement": "protein production", "result": "failed"}]}
{"sequence": "MGLAASEALQGSEQEINSAFSNQITPVISGDYIVWQDERDGNWDIYMYDMSAGRTETSLFNGPKDEIEPAISGSRVVLADNRRGNYDIYMYDISTKKEVQVTSDKSEQKEPAISEDIIVWTDRRNQNTDIYMYDLTTKEETRITDDKADQSQPAVWGNIIVWKDTRNGNEDIYMYDISAGKESPVVMDSAAQTNPVIEGDYIVWEDRRAGNLDIYMYEISTGKEKPVCTDPSPQKTPAISDGRIVWADGRIKGTNIFIYDIATGQEKTVSTASEYESNPSIDGNRIVWQDKRKGAMDIFMFTEDASETESTAGEKTEAETGSKAPLGIYPVSAGVIAAYLMINSGKKGKRKTLEHHHHHH", "values": [{"measurement": "protein production", "result": "failed"}]}
{"sequence": "MIDKQSGIPIYIQIQSEIKKKMEDGVWKVGTSIPAERQLAEMFHVSRMTVRQAIQGLVDDNILQRRVGAGTFIAEKKLTERLEAVTSFTNLMLQEGKVPSTRIVSYGIRPASTQEQEALQLPENSNVMKIERIRYGDRVPILYEVAAIPEKIASLLTKEDIMDSLYKAIELKLGQPIGEAEQIMEASLVSEKIAPYLDVKLGSPVMKLRQITTLEDGRPFEFTRSQYVGSRFQFVARIKQ", "values": [{"measurement": "protein production", "result": "failed"}]}
{"sequence": "MSAVKSVSSFRLASLLRRENDPSAAMKLFRNPDPESTNPKRPFRYSLLCYDIIITKLGGSKMFDELDQVLLHLKTDTRIVPTEIIFCNVINFFGRGKLPSRALHMFDEMPQYRCQRTVKSLNSLLSALLKCGELEKMKERLSSIDEFGKPDACTYNILIHGCSQSGCFDDALKLFDEMVKKKVKPTGVTFGTLIHGLCKDSRVKEALKMKHDMLKVYGVRPTVHIYASLIKALCQIGELSFAFKLKDEAYEGKIKVDAAIYSTLISSLIKAGRSNEVSMILEEMSEKGCKPDTVTYNVLINGFCVENDSESANRVLDEMVEKGLKPDVISYNMILGVFFRIKKWEEATYLFEDMPRRGCSPDTLSYRIVFDGLCEGLQFEEAAVILDEMLFKGYKPRRDRLEGFLQKLCESGKLEILSKVISSLHRGIAGDADVWSVMIPTMCKEPVISDSIDLLLNTVKEDGPLSAMPQC", "values": [{"measurement": "protein production", "result": "failed"}]}
{"sequence": "MDFRALALSLLLWLVPLWACANDQLDKLTQQVYQYPTKALAQITELEKQQQTDNTSNIDKLRLSILKCQNLLQLGENEAAINLAQMGEAHAKQLKLDQARPYFFNCQADAYLNYDNIQDALPLLDSAITLARRYQQPQALIDALRLRGQLDTNTDNFSSAIEDLRIAIDIYPDIHTQTQNWIWPPEAVGSPHNS", "values": [{"measurement": "protein production", "result": "failed"}]}
